According to article doi:10.1101/815886 (bioRxiv, 2019):

B1: human TEN1 (subunit of the purified recombinant CST complex) (natural protein)
chain: MMLPKPGTYYLPWEVSAGQVPDGSTLRTFGRLCLYDMIQSRVTLMAQHGSDQHQVLVCTKLVEPFHAQVGSLYIVLGELQHQQDRGSVVKARVLTCVEGMNLPLLEQAIREQRLYKQERGGSQ
B2: human CTC1 (subunit of the purified recombinant CST complex) (natural protein)
chain: MAAGRAQVPSSEQAWLEDAQVFIQKTLCPAVKEPNVQLTPLVIDCVKTVWLSQGRNQGSTLPLSYSFVSVQDLKTHQRLPCCSHLSWSSSAYQAWAQEAGPNGNPLPREQLLLLGTLTDLSADLEQECRNGSLYVRDNTGVLSCELIDLDLSWLGHLFLFPRWSYLPPARWNSSGEGHLELWDAPVPVFPLTISPGPVTPIPVLYPESASCLLRLRNKLRGVQRNLAGSLVRLSALVKSKQKAYFILSLGRSHPAVTHVSIIVQVPAQLVWHRALRPGTAYVLTELRVSKIRGQRQHVWMTSQSSRLLLLKPECVQELELELEGPLLEADPKPLPMPSNSEDKKDPESLVRYSRLLSYSGAVTGVLNEPAGLYELDGQLGLCLAYQQFRGLRRVMRPGVCLQLQDVHLLQSVGGGTRRPVLAPCLRGAVLLQSFSRQKPGAHSSRQAYGASLYEQLVWERQLGLPLYLWATKALEELACKLCPHVLRHHQFLQHSSPGSPSLGLQLLAPTLDLLAPPGSPVRNAHNEILEEPHHCPLQKYTRLQTPSSFPTLATLKEEGQRKAWASFDPKALLPLPEASYLPSCQLNRRLAWSWLCLLPSAFCPAQVLLGVLVASSHKGCLQLRDQSGSLPCLLLAKHSQPLSDPRLIGCLVRAERFQLIVERDVRSSFPSWKELSMPGFIQKQQARVYVQFFLADALILPVPRPCLHSATPSTPQTDPTGPEGPHLGQSRLFLLCHKEALMKRNFCVPPGASPEVPKPALSFYVLGSWLGGTQRKEGTGWGLPEPQGNDDNDQKVHLIFFGSSVRWFEFLHPGQVYRLIAPGPATPMLFEKDGSSCISRRPLELAGCASCLTVQDNWTLELESSQDIQDVLDANKSLPESSLTDLLSDNFTDSLVSFSAEILSRTLCEPLVASLWMKLGNTGAMRRCVKLTVALETAECEFPPHLDVYIEDPHLPPSLGLLPGARVHFSQLEKRVSRSHNVYCCFRSSTYVQVLSFPPETTISIPLPHIYLAELLQGGQSPFQATASCHIVSVFSLQLFWVCAYCTSICRQGKCTRLGSTCPTQTAISQAIIRLLVEDGTAEAVVTCRNHHVAAALGLCPREWASLLDFVQVPGRVVLQFAGPGAQLESSARVDEPMTMFLWTLCTSPSVLRPIVLSFELERKPSKIVPLEPPRLQRFQCGELPFLTHVNPRLRLSCLSIRESEYSSSLGILASSC
B3: human STN1 (subunit of the purified recombinant CST complex) (natural protein)
chain: MQPGSSRCEEETPSLLWGLDPVFLAFAKLYIRDILDMKESRQVPGVFLYNGHPIKQVDVLGTVIGVRERDAFYSYGVDDSTGVINCICWKKLNTESVSAAPSAARELSLTSQLKKLQETIEQKTKIEIGDTIRVRGSIRTYREEREIHATTYYKVDDPVWNIQIARMLELPTIYRKVYDQPFHSSALEKEEALSNPGALDLPSLTSLLSEKAKEFLMENRVQSFYQQELEMVESLLSLANQPVIHSASSDQVNFKKDTTSKAIHSIFKNAIQLLQEKGLVFQKDDGFDNLYYVTREDKDLHRKIHRIIQQDCQKPNHMEKGCHFLHILACARLSIRPGLSEAVLQQVLELLEDQSDIVSTMEHYYTAF

Columns and labels:
Assay in all cases: cryo-EM structure
[1] = biological target: B2
[2] = biological target: B3
[3] = biological target: the molecule itself

For B1, the binding result [1] was “binds” and the “stoichiometry N” value [2] was 1.

B2: binds [3].

B3 was tested, and the “stoichiometry N” value [1] was 1.
